Test results reported in patent publication US20120277286A1, “COMPOSITIONS AND METHODS FOR THE TREATMENT OR PREVENTION OF MITOCHONDRIAL DISEASES” (The Government of the USA, as represented by the Secretary, …, priority 2009, published 2012).
Where “and” joins values, the source holds several entries; their conditions need not be identical. Equal entries are not always repeated.

B1: YFP-Parkin: YFP-tagged Parkin E3 ligase expressed from a transfected vector (protein, UniProt O60260 1-465, looked up)
E3 ubiquitin-protein ligase …: MIVFVRFNSSHGFPVEVDSDTSIFQLKEVVAKRQGVPADQLRVIFAGKELRNDWTVQNCDLDQQSIVHIVQRPWRKGQEMNATGGDDPRNAAGGCEREPQSLTRVDLSSSVLPGDSVGLAVILHTDSRKDSPPAGSPAGRSIYNSFYVYCKGPCQRVQPGKLRVQCSTCRQATLTLTQGPSCWDDVLIPNRMSGECQSPHCPGTSAEFFFKCGAHPTSDKETSVALHLIATNSRNITCITCTDVRSPVLVFQCNSRHVICLDCFHLYCVTRLNDRQFVHDPQLGYSLPCVAGCPNSLIKELHHFRILGEEQYNRYQQYGAEECVLQMGGVLCPRPGCGAGLLPEPDQRKVTCEGGNGLGCGFAFCRECKEAYHEGECSAVFEASGTTTQAYRVDERAAEQARWEAASKETIKKTTKPCPRCHVPVEKNGGCMHMKCPQPQCRLEWCWNCGCEWNRVCMGDHWFDV
modifications: YFP fusion
notes: YFP-tagged Parkin E3 ligase expressed from a transfected vector
B2: PINK1: exogenously expressed wild type PINK1 (V5 or myc tagged) (protein, UniProt Q9BXM7 78-581, looked up)
Serine/threonine-protein …: AARLQRQFVVRAWGCAGPCGRAVFLAFGLGLGLIEEKQAESRRAVSACQEIQAIFTQKSKPGPDPLDTRRLQGFRLEEYLIGQSIGKGCSAAVYEATMPTLPQNLEVTKSTGLLPGRGPGTSAPGEGQERAPGAPAFPLAIKMMWNISAGSSSEAILNTMSQELVPASRVALAGEYGAVTYRKSKRGPKQLAPHPNIIRVLRAFTSSVPLLPGALVDYPDVLPSRLHPEGLGHGRTLFLVMKNYPCTLRQYLCVNTPSPRLAAMMLLQLLEGVDHLVQQGIAHRDLKSDNILVELDPDGCPWLVIADFGCCLADESIGLQLPFSSWYVDRGGNGCLMAPEVSTARPGPRAVIDYSKADAWAVGAIAYEIFGLVNPFYGQGKAHLESRSYQEAQLPALPESVPPDVRQLVRALLQREASKRPSARVAANVLHLSLWGEHILALKNLKLDKMVGWLLQQSAATLLANRLTEKCCVETKMKMLFLANLECETLCQAALLLCSWRAAL
modifications: V5 or myc tag

What was measured:
[1] = system: HeLa cells; experiment: Parkin colocalization with mitochondria scored by confocal microscopy; assay type: cell-based; conditions: for YFP-Parkin (wild type or indicated mutant) colocalization with mitochondria, % of cells: HeLa cells, 10 μM CCCP, 1 hour; for cells with YFP-Parkin co-localized with TMRE: HeLa, no CCCP, YFP-Parkin alone or with PINK1-myc 1:4
In short: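 Transfected HeLa cells fixed 12–24 h post-transfection in 4% paraformaldehyde. Cells immunostained for mitochondrial markers and imaged by confocal microscopy. Parkin recruitment to mitochondria assessed by line-scan colocalization.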

[2] = system: PINK1+/+ or PINK1−/− MEFs; experiment: Parkin-induced mitophagy in MEFs; assay type: cell-based, mouse; conditions: primary MEFs expressing YFP-Parkin, 20 μM CCCP, 24 hours; PINK1+/+ (CCCP line) or PINK−/− reconstituted with PINK1
Source text: HeLa YFP-Parkin, PINK1+/+ SV40 transformed MEFs cells, PINK1−/− SV40 transformed MEF, M17 neuroblastoma control shRNA, M17 neuroblastoma PINK1, and Mfn1/2−/− MEF cell lines have been described previously (Narendra (2008) J Cell Biol 183: 795-803). PINK1+/+ and PINK1−/− primary MEFs were isolated from embryos using a standard protocol (Gautier (2008) Proc Natl Acad Sci USA 105: 11364-11369). Parkin+/+ and Parkin−/− transformed MEFs were created by isolation of primary cells from embryos of B6.129S4-Park2tm1Shn/J mice (Jackson Labs), using a standard protocol (Gautier (2008) Proc Natl Acad Sci USA 105: 11364-11369), followed by retroviral transduction of SV40 (Applied Biological Materials, Inc.). YFP-Parkin, YFPParkin mutants, mCherry-Parkin, PINK1-YFP, PINK1 KD-YFP, PINK1 Δ1-110-YFP, and Opa3-PINK1 Δ1-110-YFP are in C1 or N1 Clontech vectors. PINK1WT-V5, PINK1 KD-V5, and PINK1 Δ1-156-V5 are in pDest40 vector (Invitrogen). PINK1 patient mutations are in pLenti-V5 vector (Invitrogen). PINK1-myc is in a pCMBTNT vector (Promega).
Confocal microscopy of fixed samples, scoring of Parkin recruitment and Parkininduced mitophagy, and live cell imaging were performed as described previously (Narendra (2008) J Cell Biol 183: 795-803). Experiments in Mfn1/2 null cells were performed as described previously with minor modifications. […]

[3] = system: HeLa cells; experiment: Live cell imaging, time to Parkin translocation; assay type: cell-based; conditions: mCherry-Parkin alone (CCCP line) or with PINK1-YFP 1:1, 10 μM CCCP
Procedure: FIGS. 13A-13D show the kinetics of Parkin recruitment are modulated by PINK1 expression. […] The cells were imaged live following the addition of 10 μM CCCP in serum at time point 0 min FIG. 13B lists the vectors used for transfection of HeLa cells with mCherry-Parkin and the indicated construct in a 1:1 ratio were treated as in (A) and imaged live (1 frame/minute) following the addition of CCCP. Time to the beginning of Parkin translocation was defined as the first appearance of puncta in ≧2 quandrants of the cell for ≧2 consecutive images for ≧6 cells in ≧3 independent experiments. […] Cells were loaded with TMRE (red) to stain polarized mitochondria. Cells were not treated with CCCP. Scale bars in last image=10 μm. FIG. 13D is a graph that quantitates results in cells treated as described in FIG. 13C, which were scored for co-localization between YFP-Parkin and TMRE. ≧50 cells/experiment were scored in ≧3 independent experiments.
(§1) Confocal microscopy of fixed samples, scoring of Parkin recruitment and Parkin-induced mitophagy, and live cell imageing were performed as described previously (Narendra (2008) J Cell Biol 183: 795-803). Experiments in Mfn1/2 null cells were performed as described previously with minor modifications described in the supplemental methods (Narendra (2008) J Cell Biol 183: 795-803).

[4] = system: HeLa cells; experiment: Parkin-induced mitophagy, loss of mitochondria by immunocytochemistry; assay type: cell-based
Procedure: Cultured cells seeded in borosilicate chamber slides (Thermo Fisher Scientific) were transfected or cotransfected with YFP-Parkin, ECFP-Parkin, mCherry-Parkin, DsRed-Mito (Clontech Laboratories, Inc.), pcDNA3.1 (Invitrogen), vMIA, and/or Drp1K38A constructs using Fugene 6 (Roche). Parkin-myc was a gift from M. Cookson (National Institutes of Health, Bethesda, Md.). Cells were fixed 12-24 hours after transfection with 4% paraformaldehyde in PBS. Cells were stained with following primary antibodies: mouse monoclonal cytochrome c (BD), rabbit polyclonal Tom20 (Santa Cruz Biotechnology, Inc.), mouse monoclonal Parkin PRK8 (Santa Cruz Biotechnology, Inc.), rabbit polyclonal PMP70 (Invitrogen), and/or mouse monoclonal TRAP1 (Abcam); and with the following secondary antibodies: mouse and/or rabbit Alexa 488, 594, and 633 (Invitrogen). For assessment of mitochondrial membrane potential, cells were pulsed with 50 nM Mito-Tracker red (Invitrogen) for 15 min, washed, and incubated for an additional 10 minutes before fixation or imaging. For assessment of cell metabolic potential, cell nuclei were stained with Hoechst 33342 (Invitrogen).
Confocal microscopy of fixed samples, scoring of Parkin recruitment and Parkininduced mitophagy, and live cell imaging were performed as described previously (Narendra (2008) J Cell Biol 183: 795-803). Experiments in Mfn1/2 null cells were performed as described previously with minor modifications.
as §1

Molecule | YFP-Parkin (wild type or indicated mutant) colocalization with mitochondria, % of cells [1] | cells with no detectable mitochondria [2] | time to translocation of Parkin [3] | cells with YFP-Parkin co-localized with TMRE [1] | cells with no mitochondria ([4]; HeLa expressing YFP-Parkin variant, CCCP 24 hours) | mitochondrial mass in Parkin-expressing cells ([4]; HeLa, 10 μM CCCP, 12 hours) | mitochondria detectable in Parkin-expressing cells (Tom20, cytochrome c, TRAP1) ([4]; HeLa, 10 μM CCCP, 48 hours) | cells with no mitochondria ([4]; HeLa, co-transfection with Parkin, 96 hours, absence of CCCP)
N#CC(C#N)=NNc1cccc(Cl)c1 [CCCP, carbonyl cyanide m-chlorophenylhydrazone] | 78.49±2.61% and 96.0±3.5% | 66.1±16.8% | 32.0 ± 5.4 min |  |  |  |  | 
B1 | 94.7±5.8% |  |  | 0±0% | 59.0±15.1% | grossly reduced | no mitochondria remained detectable | 
B2 |  | 65.5±5.0% | 5.0 ± 1.5 min | 45.3±7.6% |  |  |  | 42.1±7.3%
